Patent US8178581B2, “Production of peracids using an enzyme having perhydrolysis activity” (E. I. du Pont de Nemours and Company, priority 2005, dated 2012)

B1: Novozymes Lipolase 100 L type EX: commercial lipase, source Thermomyces lanuginosus (Novozymes) (protein, UniProt O59952 23-291, looked up)
Lipase: EVSQDLFNQFNLFAQYSAAAYCGKNNDAPAGTNITCTGNACPEVEKADATFLYSFEDSGVGDVTGFLALDNTNKLIVLSFRGSRSIENWIGNLNFDLKEINDICSGCRGHDGFTSSWRSVADTLRQKVEDAVREHPDYRVVFTGHSLGGALATVAGADLRGNGYDIDVFSYGAPRVGNRAFAEFLTVQTGGTLYRITHTNDIVPRLPPREFGYSHSSPEYWIKSGTLVPVTRNDIVKIEGIDATGGNNQPNIPDIPAHLWYFGLIGTCL
B2: Novozymes Lipozyme TL 100 L: commercial lipase, source Thermomyces lanuginosus (Novozymes) (protein, UniProt O59952 23-291, looked up)
Lipase: B1 Lipase

Test: Perhydrolysis of triacetin with hydrogen peroxide; peracetic acid measured by HPLC method of Karst et al.
Type: biochemical
Conditions: Table 14: triacetin 250 mM, H2O2 1.0 M, pH 6.5, 25° C., 50 μg/mL of commercial lipase
Procedure: Determination of the concentration of peracetic acid in the reaction mixture was performed according to the method described by Karst et al. Aliquots (0.250 mL) of the reaction mixture were removed at 10 min and 30 min and filtered using an Ultrafree® MC-filter unit (30,000 Normal Molecular Weight Limit (NMWL), Millipore cat #UFC3LKT 00) by centrifugation for 2 min at 12,000 rpm; removal of the protein component of the aliquot by filtration terminated the reaction. An aliquot (0.100 mL) of the resulting filtrate was transferred to 1.5-mL screw cap HPLC vial (Agilent Technologies, Palo Alto, Calif.; #5182-0715) containing 0.300 mL of deionized water, then 0.100 mL of 20 mM MTS (methyl-p-tolyl-sulfide) in acetonitrile was added, the vials capped, and the contents briefly mixed prior to a 10 min incubation at ca. 25° C. in the absence of light. To each vial was then added 0.400 mL of acetonitrile and 0.100 mL of a solution of triphenylphosphine (TPP, 40 mM) in acetonitrile, the vials re-capped, and the resulting solution mixed and incubated at ca. 25° C. for 30 min in the absence of light. To each vial was then added 0.100 mL of 10 mM N,N-diethyl-m-toluamide (DEET; HPLC external standard) and the resulting solution analyzed by HPLC as described below.
Supelco Discovery C8 column (10-cm×4.0-mm, 5 μm) (cat. #569422-U) w/precolumn Supelco Supelguard Discovery C8 (Sigma-Aldrich; cat #59590-U); 10 microliter injection volume; gradient method with CH3CN (Sigma-Aldrich; #270717) and deionized H2O at 1.0 mL/min and ambient temperature: […]
An extract of E. coli UM2/pSW186 transformant (20 mg total protein/mL extract, prepared as described in Example 21) was employed in 1.0 mL perhydrolysis reactions (run as described in Example 21) containing triacetin (40 mM or 100 mM), hydrogen peroxide (40 mM or 100 mM) and extract total protein (0.1 mg/mL or 1.0 mg/mL) in phosphate buffer (Pi, 100 mM, 200 mM or 300 mM) at pH 6.5 or 7.5 at 25° C. each reaction (Table 11).
Separate 1.0 mL reactions containing triacetin (250 mM), hydrogen peroxide (1.0 M) and 50 μg of extract total protein in 50 mM phosphate buffer (pH 6.5) were run at 25° C. with each transformant extract. […] The concentration of peracetic acid in the reaction mixtures (Table 12) was determined according to the method of Karst et al. as described in Example 2.
Separate 1-mL reactions containing triacetin (250 mM), hydrogen peroxide (1.0 M) and 50 μg of extract total protein from a cell extract (prepared as described above) in 50 mM phosphate buffer (pH 6.5) were run at 25° C. […] The concentration of peracetic acid in the reaction mixtures (Table 13) was determined according to the method of Karst et al. described in Example 2. […]

Molecule | PAA (ppm); 5 min [ppm] | PAA (ppm); 30 min [ppm]
B1 | 10 | 0
B2 | 125 | 370
